Experiments:
ctnb1_human CTNNB1 = ctnb1_human CTNNB1 (UniProt P35222)
ctnb1_mouse Ctnnb1 = ctnb1_mouse Ctnnb1 (UniProt Q02248)
ctnb1_mouse Ctnnb1, sequence (Q02248 whole entry): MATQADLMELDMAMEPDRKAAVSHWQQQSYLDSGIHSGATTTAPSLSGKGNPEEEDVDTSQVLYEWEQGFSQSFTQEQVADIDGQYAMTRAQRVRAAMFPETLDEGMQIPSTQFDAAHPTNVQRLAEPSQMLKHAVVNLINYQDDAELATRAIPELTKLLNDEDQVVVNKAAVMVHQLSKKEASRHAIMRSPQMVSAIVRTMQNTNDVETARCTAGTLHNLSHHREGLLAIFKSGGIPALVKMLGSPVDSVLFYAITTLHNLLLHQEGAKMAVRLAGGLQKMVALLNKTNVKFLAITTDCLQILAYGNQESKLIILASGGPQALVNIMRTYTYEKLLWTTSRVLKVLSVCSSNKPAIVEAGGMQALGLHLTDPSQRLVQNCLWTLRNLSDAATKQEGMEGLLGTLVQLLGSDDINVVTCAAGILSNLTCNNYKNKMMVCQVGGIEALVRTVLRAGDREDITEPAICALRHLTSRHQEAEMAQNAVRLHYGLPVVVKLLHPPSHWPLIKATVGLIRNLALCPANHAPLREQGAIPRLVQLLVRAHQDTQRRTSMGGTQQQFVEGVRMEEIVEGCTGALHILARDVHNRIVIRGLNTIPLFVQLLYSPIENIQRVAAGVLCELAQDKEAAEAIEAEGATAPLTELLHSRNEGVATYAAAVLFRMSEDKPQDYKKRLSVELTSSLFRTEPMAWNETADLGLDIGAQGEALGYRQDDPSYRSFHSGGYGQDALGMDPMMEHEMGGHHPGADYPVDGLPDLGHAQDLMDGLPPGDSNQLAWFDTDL

ctnb1_human CTNNB1, sequence (P35222 whole entry): as the sequence (Q02248 whole entry) above, with A706P counted along it

effect of a mutation on the interaction (ctnb1_human CTNNB1)	effect of a mutation on the interaction (ctnb1_mouse Ctnnb1)	Substance
decreasing interaction		CREB-binding protein (Homo sapiens), Q92793 S92A
	decreasing interaction	Histone lysine acetyltransferase CREBBP (Mus musculus), P45481 S92A

Reference: IntAct's records for PubMed 21751375
